# Experiment: soluble on expression in E. coli; label from the status in PepcDB or PDB records
row,Sequence,soluble on expression in E. coli
1,MKTYYEQDANVGLLQGKTVAVIGYGSQGHAQAQNLRDSGVEVVVGVRPGKSFEVAKADGFEVMSVSEAVRTAQVVQMLLPDEQQAHVYKAEVEENLREGQMLLFSHGFNIHFGQINPPSYVDVAMVAPKSPGHLVRRVFQEGNGVPALVAVHQDATGTALHVALAYAKGVGCTRAGVIETTFQEETETDLFGEQAVLCGGVTALVKAGFETLTEGGYRPEIAYFECLHELKLIVDLMYEGGLTNMRHSISDTAEFGDYVTGSRIVTDETKKEMKRVLTEIQQGEFAKKWILENQAGRPTYNAMKKAEQNHQLEKVGEELREMMSWIHAPKELVKK,not soluble
2,GMTRRIAICAPSTPFTREDSARVIALAAAEFPDLSLSFHEQCFASEGHFAGSDALRLSAFLECANDDAFEAVWFVRGGYGANRIAEDALARLGRAASAKQYLGYSDAGTLLAALYAHRIGRSVHAPMPVDIRRPEGESAVRRTLGWLAGAREGLEPTLGAGAPAVAFNLMTLAMLCGTRLLPDLSGHVVMIEEVAEHHYAVDRLLFHVTSCLADAGIAGLRLGRVSDVPENDRPFGCSVEEMARHWCHRAGIAFLGTADIGHDVDNRIVPFGLA,soluble
3,MSLALPDFEFSFATRDEFDRKPVAKKLINILNSNIDISPMVIDGSWGTGKTEFCRKTIKLINDEFNETLICAYIDAFEADHTNDPLIPIVAAISELIEDSSKKIAFLNKAKAIFRYGLKASARASVAWLLRSNTETLDQEFQKELEKAVDEGSQNLVDGVITDYQEAKKDINSLKLILQDLTVEKKLVIFIDELDRCKPDFAIAIIEKIKHVFDVANVKFILVTNYTQMKASVNHCYGLALDAHRYLDKFIKFKFYLPTDKYSNKRKQHVSYHYADQLIRNSDILKAHSRYYLDSRFDLLNNLIIINELSLREISNFILYLELFHTLKSDQFAPDKWYHLSIFIIFILYFKPELREKIRKKDILASELCKFLGINSHIKAKELTHDKDGVSRDIATLIMIFLNDNSIPGYQSDDEEDFKGWLSKLALSTNVGYLELITYIEQFINDIFNEFQFVTKAAALEHHHHHH,soluble
4,MIRLSEQSPLGTGRHRKCYAHPEDAQRCIKIVYHRGDGGDKEIRRELKYYAHLGRRLKDWSGIPRYHGTVETDCGTGYVYDVIADFDGKPSITLTEFAEQCRYEEDIAQLRQLLKQLKRYLQDNRIVTMSLKPQNILCHRISESEVIPVVCDNIGESTLIPLATWSKWCCLRKQERLWKRFIAQPALAIALQKDLQPRESKTLALTSREALEHHHHHH,not soluble
5,MTTLNSTPRADGFHMPAEWAPQTQVWMVWPERPDNWRLGGKPAQAAHVAIAKAIARFEPVTVAVSAAQYDNARARLDMPNIRVVEMSSNDAWVRDSGPTFVINDRGELRGVNWEFNAWGGFDGGLYAPWNLDSQVGSKVLEIERCPRYATQGFVLEGGSIHVDGEGTLITTEECLLNRNRNPHLTREQIEAVLSDYLAVDKIIWLPDGLFNDETDGHVDNFCCYIRPGEVLLAWTDDPEDPNYPRCHAALSILENTRDAQGRAFIVHKMPIPGPLFATEEECAGVDQVHGSQERNPSVRLAGSYVNFLIVNGGIIAPSFDDPMDEKAREILQKLFPEHEVVMAPGRELLLGGGNIHCLTQQQPAPFKALEHHHHHH,soluble
6,MKKILLSLLALGCFSAANAQTFRFGPTVGGNLNISDETKTKIGFAVGAKAEMNFNNPENGWFMDASVLFNNRNRQSENYFNNETKLTQCWKYSTYSLLVPVNVGYKFRLSDNLNLLAAVGPYADFGLTGTDKVTTTDAKGHSKEEKMSSNVYGDKLFNRVNFGFDAKVGVEIAKHYQLSLSYSRGFTNIFKGGLNTKAQDLQLGFSYMF,not soluble
7,MGSDKIHHHHHHMIRLGLTSFSEHDYLTGKKRSTLYEYASHLPLVEMDTAYYGIPPKERVAEWVKAVPENFRFVMKVYSGISCQGEWQTYYASEEEMITAFLESMAPLIESKKLFAFLVQFSGTFGCTKENVAYLQKIRHWFKDLPIAIELRNNSWYQPNFVKQMLQFMKENQFSLVIVDEPQIPTNPVPFYPYVTNPNLVLFRFHGRNAAGWLANDAEWRKKRTLYHYNTQEIADLSEAVLKMSQEAKEVGVIFNNNSGGDAAENALQMQKVLNLSYDDLNPKQLDLF,soluble
8,MGSSHHHHHHSSGRENLYFQGMKLATLKDSTRDGKLVVVSKDLTRCSEVGHIARTLQAALDDWAHAGPRLERVAEGIETGAQPTMRFHEHDAASPLPRAFQWADGSAYVNHVELVRKARNAEMPASFWTDPLIYQGGSDSFLGPRDPILMADDAWGIDMEGEAAVIVDDVPMGATLDEAKAAIRLVMLVNDVSLRGLIPGELAKGFGFYQSKPSSAFSPVAVTPEELGEAWDGGKLHLPLHVDLNGEPFGRANAGIDMTFDFPQLIVHAARTRPLSAGTIIGSGTVSNKLEGGPGRPVSEGGAGYSCIAELRMIETIEGGAPKTQFLKFGDVVRIEMKDRTGHSIFGAIEQKVGKYERG,soluble
9,EPMQVVKQRRDAALNALVSGVPFIRFLNITFDRRGDELTGVLNFDDKLIGNPFLPAIHGGVTAAFLEVTAVITLSWAHLFERIESGDLAPEDILTDENMRFPKTIDFTIDYLRSGLPRDAYARAYISRAGRRYASVRVEAWQDHHDKLYAQGTGHFLMP,not soluble
10,PVNGALDQYSARAANILAGNLDNHPLLEITALDFRMKANSDVLIAVTGAPLTLTVGGRPCSQWEPVSVRAGESVSIRGIHRGLRAYLAIHGSIEAGTLLGSAAPDTVVGFGLQLQEGTTLLSRRSVSPVRQPYFDLPLFRLGLERPSMGSDLSVDVTDGPDVAEFGESGELLFTSEYVVSGRSNHIGLRLGGELPERTSSDEVLSRGVPVGAVEVPSREELLVLHRGRGVTAGYPVLAVVTSTGLDVLAQARPGDKVRFRKTT,not soluble
11,MKDPLLNSLIYVSRYYGLANSPEALVNGLPLSDGKLTPFLLPRAAERAGLVAKENRAELEKISSLILPAILVLKGGDSCVLNSINMETREAEVTTLESGMVPISIPLEDLLEQYTGRYFLVKKQFRFDERSPEVLKTKEGHWFWSTLWQSKRIYRD,not soluble
12,MRAVVLKGFGGLEMLEERDLPVPEPGPGEVLVRNLAVAVNPVDAKIRAAGRWAGVEPPFVLGYDAAGVVAKVGPGVKDLKEGDEVYYTPEIFGNPHGTYAEYTPVPAGIVAKKPKNLSFAEAAAIPLAGGTAWKAVVRRLAVRPGETVLVMGGAGGVGSFAVQFAKAAGAYVIATASAENLPVLKELGADLALDYRGPWAEEVLKATEGQGVDAAFETAGESLVERVIPVVRPFGRIATILPPQGNLSGLYTKNQTLYGVFLTRERKRLLEMRPLFERGLARPLIAEVLPFSLENLRKAHARMDSGHGRGKIVLTFQA,soluble
13,AHHHHHHGSSIKIELFGITFENPLILASGVVDMTPELLRRAHKEGAGGVVTKSIGIEPRKGYDNPTVVEVPCGLINAMGLPNPGWKAFLEEFEKESFDFPVIVSIFGGNPEEFAFLAEKLERVGDAFELNLSCPHAKGYGLEIGQDPENVYRVVKAVKDVTDKPVIAKLTPNTSDITKLGLAAEKAEADGVSAINTLKAIAIDIYAKRPILSNKFGGYSGPGIKPIALRAVYDLASKLDIPIIGIGGITTWQDAVEFLLAGASAVQIGTAVYLKGFSVFREIAEGIRKYLEEEGFSSVKEIIGLAQKV,soluble
14,MVLYVPTYREDKADNRAIDKAYFEKCLPGYTLINKLHPSIEDSDIDDVSSIDTSTLMLMSDIIISDYSSLPIEASLLDIPTIFYVYDEGTYDKVRGLNQFYKAIPDSYKVYTEEDLIMTIQEKEHLLSPLFKDWHKYNTDKSLHQLTEYIDKMVTK,not soluble
15,MVSHHNLTTGATLINEQWLLTTAKNLFLNHSENATAKDIAPTLTLYVGKKQLVEIEKVVLHPNYSQVDIGLIKLKQKVSVNERVMPICLPSKDYAEVGRVGYVSGWGRNANFKFTDHLKYVMLPVADQDQCIRHYEGSTVPEKKTPKSPVGVQPILNEHTFCAGMSKYQEDTCYGDAGSAFAVHDLEEDTWYATGILSFDKSCAVAEYGVYVKVTSIQDWVQKTIAEN,not soluble
16,AHHHHHHGSKLTHVDEKGVKMVEVGHKKDMYRRAIAKGRIKLKPETIKLIREGKIEKGNVLAAAQIAGILAVKKTFDIIPLCHPIPLTGVDITFDFGEDYIEVTCEVRAIYKTGVEMEALTGVSVALLTIWDMVKAVEKDEKGQYPYTKIEEIRVVEKIKEERS,soluble
17,MKSRREQSIEEAIVANYLKMMIDNVNVWPRHFLRSEDVYCKNPWTLFVTRDPIILHFGRYFFVNRSVNSGLTDGCEYGCWRIIGRDRVIKSVTTGKILGLKKVYKFCETDRKPKSVFKFLEKEKRRVRDRRIWAMEEYRFASTWKQDYVICKIRRLYPQPFDYMLAQHIRGYYK,soluble
18,MSEKLDLTRFEKKMVIRNIEEKDIDKIIDLQKDCFPGMEPWKREHLISHLEHFPEGQFCAEFEGEIIGSCSSLLINFDEYDDRHTWQDITDDGYITNHNPDGLNMYGIEVMVHPKYRRMKIGHRLYEARKDLARRLSLKSIIIGGRIPNYHKYAEEMTAREYVEQVTRHQIYDPVLSFQLMNGFTLMRINPNYLPDDTASIKY,not soluble
19,MKDLSSIVAKFNTQGTITEIKPLGAGLINDTYKVNTQEADAPDYVLQRINHAIFQNVEMLQSNIAAVTGHIRKKLTEAGEADIDRKVLSFLATEEGKTYWFDGESYWRVMVFIPRAKTYETVNPEYSNYAGEAFGNFQAMLADIPETLGETIPDFHNMEFRLKQLRDAVAANAAGRVAEVQYYLDEIEKRADEMCKAERLFREGKLPKRVCHCDTKVNNMMFDEDGKVLCVIDLDTVMPSFIFSDYGDFLRTGANTGDEDDKDLNRVNFNMEIFKAFTKGYLKGAKSFLTPIEIENLPYAAALFPYMQCVRFLADYINGDTYYKIKYPEHNLVRTKAQFKLLQSVEEHTPEMVAFINECLVNGLEHHHHHH,soluble
20,MKLFERIHQDTEIRQIYDAIGQMEDEEAGWAYHNWFHVTNVVAMTEMILKQLAVSEEYLEAAKIAALLHDVGALQGKAGHALRGKQFAEAYFRKQKICLPYQEEILSSIENHSNGFDSEELMTLALIISDKLDITTSRVAKAGYFVPGMRQFQFLKKIEIMLSEQEVCVSFTAEEELDLEELNAFYFMPKVFKAIAAFSGKIQRRPIVLLNNQEWPVPKQKNPSTVHLEHHHHHH,soluble
21,MKTSDIHDVAIVGAGPAGLSAAYELIRTGFTPLVLERTPAVGDVWRNHYDGLRLNSGRFFSALPGSKFPLSAGGWPSRDEVVSLLETFPARGGFTVQTGIEVEKVSHDRERDIWLITSNDNRQFESRAVVIAAGANRIPIIPEWEGKNTFTGTIIHSSQFKSAQDYAGKHVLVVGSGNSAAEIASRLAKYADSVTMSVRTPPQILPKSIYGIPLIGIGVWTRYLPRALVDGLLNFLRRTMIGDLSVYGLPSPTISMSKQYAINNVVPILYGPFIDDVRSGRIKIVGPVQKISGGTVEVLSTVESALNGDQATTTLQPDIIVAGTGFRTGFPELIQVPGITDEKGRSKISGDQEFKGAPRLYFIGQINPLSGQLREIRLEAGRIARKLDKQLRAKLEHHHHHH,soluble

# Reference: the DeepSol protein solubility set
